# T1: human CD7 molecule (human, UniProt P09564 26-240)
# T1 construct: whole, on cells; also called CD7 protein
# T1 sequence (looked up): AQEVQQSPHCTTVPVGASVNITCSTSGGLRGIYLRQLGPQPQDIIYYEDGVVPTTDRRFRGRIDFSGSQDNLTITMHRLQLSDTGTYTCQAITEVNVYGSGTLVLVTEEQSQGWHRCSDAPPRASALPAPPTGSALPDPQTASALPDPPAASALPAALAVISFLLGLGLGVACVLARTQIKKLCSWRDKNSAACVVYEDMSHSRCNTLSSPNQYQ
# B1: anti-human CD7 nanobody clone 1 (VHH)
# VHH: DVQLQESGGGSVQAGGSLRLSCPASGYTFSHYCMGWNRQAPGKEREEVATIDTDDTPTYADSVMGRFTISRDNANNALYLQMNDLKPEDTSMYYCAIWMKLRGSCHDRRLEVRGQGTQVTVSI
# B2: anti-human CD7 nanobody clone 3 (VHH)
# VHH: DVQLQESGGGSVQAGGSLRLSCPASGYTFSHYCMGWLRQAPGKEREEVATIDTDSTPTYADSVMGRFTISRDNANNALYLQMNDLKPEDTSMYYCATWMGLRGSCHDRRLEVRGQGTQVTVSI
# B3: anti-human CD7 nanobody clone 4 (VHH)
# VHH: DVQLQESGGGSVQAGGSLRLSCAASGYTTSRLCMAWFRQFPGKEREGVANVRLGGYKPAYADSVKGRFTLSEDSAKNTVYLEMNSLQPEDTAMYYCAADPGGGGSCPVALVRGDFDYWGQGTQVTVSI
# B4: anti-human CD7 nanobody clone 6 (VHH)
# VHH: DVQLQESGGGSVQAGGSLRLSCAASGYTYSTYCMGWFRQAPGKEREGVATIDSDGSTSYADSVKGRFTISRDNAKNTLNLQMSSLKPEDTAMYYCAARFGPMGCVDLSTLSFGHWGQGTQVTVSI
# Target: T1, human CD7 molecule
# Test: phage whole-cell ELISA, 293T-CD7+ against 293T-CD7- cells; positive when OD is 2.5 times that of the control well
row,Binder,binding result
1,B1,binds
2,B2,binds
3,B3,binds
4,B4,binds
